Residue numbers refer to the chain shown, from its start.
B1: 3I14-mHgL IgG1 (mature heavy chain, germline light chain) (antibody, V domains shown)
VH: QVQLLESGGGVVQPGRSLRLSCAASGFTFSNYGMHWVRQAPGKGLEWVAIISFDGSKKYYANSVKGRSTISRDNSKNTLSLQMNSLGPEDTALYYCAKLPSPYYFDSRFVWVAASAFHFWGQGILVTVSS
VL: not shown
B2: 3I14 VLD94N variant IgG1 (antibody, V domains shown)
VH: B1 VH
VL: NFMLTQPPSASGTPGQRVTISCSGSSSNIGGNTVHWFQQLPGTAPKLLIYTNSLRPSGVPDRFSGSKSGTSASLAISGLQSEDEADYYCAAWDNSLNGQVFGGGTKLTVL
B3: 3I14-GL IgG1 (VH and VL germline versions) (antibody, V domains shown)
VH: QVQLVESGGGVVQPGRSLRLSCAASGFTFSSYGMHWVRQAPGKGLEWVAVISYDGSNKYYADSVKGRFTISRDNSKNTLYLQMNSLRAEDTAVYYCAKLPSPYYYDSRFVWVAASYFDYWGQGTLVTVSS
VL: not shown
B4: 3I14-gHmL IgG1 (germline heavy chain, mature light chain) (antibody, V domains shown)
VH: B3 VH
VL: B2 VL with N94D

Assays:
[1] = molecular target: T1, Recombinant full-length HA of A/Perth/16/09 (H3-PE09) (influenza A virus A/Perth/16/09); assay: BLI; details: both partners purified
[2] = molecular target: T1, Recombinant full-length HA of …; assay: BLI; details: both partners purified; remark: listed apart in the source

Binder	Kd [1] [nM]	koff [1] [s⁻¹]	kon [1] [M⁻¹ s⁻¹]	Kd [2] [nM]	koff [2] [s⁻¹]	kon [2] [M⁻¹ s⁻¹]
B1	0.658	0.000126	192000			
B2				0.308	5.44e-05	177000
B3	4.02	0.000556	139000			
B4	0.733	0.000125	171000			

Source: article PMC5027281 (Nature Communications, 2016)
